This passage reports koff, Kd and kon results from patent US20260234247A1 (published 2026).

Substitutions are numbered along the chain they refer to.

One assay addresses T1, human LILRB2 (human, UniProt Q8N423 22-460, limits assumed).
T1 construct: also called hLILRB2
Put plainly: Octet off-rate ranking.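 Also: antibody dissociation rate constants against cynomolgus LILRB2 plus human LILRB1, LILRB2, LILRA1 and LILRA2, measured on an Octet instrument to rank binding.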 Background: BLI is a label-free optical method that tracks binding on a fibre tip over time.

The next assay deals with T2, human LILRB1-his (human, UniProt Q8NHL6 24-458, limits assumed).
T2 construct: Analyte of the Biacore run; not shown: His tag
Put plainly: SPR (Biacore 8K), antibody captured via Fc, LILRB1-his as analyte, 1:1 model.

T1 sequence (Q8N423 22-460 limits assumed): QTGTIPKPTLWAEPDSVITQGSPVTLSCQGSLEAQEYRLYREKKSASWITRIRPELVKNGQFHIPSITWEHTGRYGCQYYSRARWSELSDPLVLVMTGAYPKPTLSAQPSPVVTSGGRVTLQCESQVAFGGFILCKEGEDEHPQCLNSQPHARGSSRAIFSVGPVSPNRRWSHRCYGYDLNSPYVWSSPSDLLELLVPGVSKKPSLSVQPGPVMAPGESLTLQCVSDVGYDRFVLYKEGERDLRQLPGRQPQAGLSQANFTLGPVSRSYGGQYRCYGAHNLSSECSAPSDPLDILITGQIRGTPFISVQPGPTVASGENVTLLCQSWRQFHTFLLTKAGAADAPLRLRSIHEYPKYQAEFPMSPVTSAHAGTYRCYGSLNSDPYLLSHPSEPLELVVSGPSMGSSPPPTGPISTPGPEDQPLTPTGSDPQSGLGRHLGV
T2 sequence (Q8NHL6 24-458 limits assumed): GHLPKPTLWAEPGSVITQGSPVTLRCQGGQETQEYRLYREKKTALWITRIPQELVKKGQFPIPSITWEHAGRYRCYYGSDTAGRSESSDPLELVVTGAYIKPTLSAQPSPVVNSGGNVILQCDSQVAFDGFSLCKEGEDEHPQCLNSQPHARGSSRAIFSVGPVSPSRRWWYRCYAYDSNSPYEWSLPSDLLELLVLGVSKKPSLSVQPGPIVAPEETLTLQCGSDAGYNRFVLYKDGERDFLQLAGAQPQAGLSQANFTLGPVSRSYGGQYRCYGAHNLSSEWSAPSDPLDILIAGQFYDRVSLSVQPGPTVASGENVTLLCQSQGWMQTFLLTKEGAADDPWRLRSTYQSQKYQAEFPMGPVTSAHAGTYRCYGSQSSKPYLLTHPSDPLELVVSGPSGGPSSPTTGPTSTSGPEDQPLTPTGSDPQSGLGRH
Protocol for human LILRB1-his: For affinity ranking, antibodies were captured on the sensor chip through Fc capture method. LILRB1-his, LILRB2-his or LILRA2-his was used as the analyte. The surface was regenerated before the injection of another antibody. The process was repeated until all antibodies were analyzed. The off-rates were obtained from fitting the experimental data locally to 1:1 interaction model using the Biacore 8K evaluation software. The data of dissociation (kd) and association (ka) rate constants were obtained using Biacore 8K evaluation software. The equilibrium dissociation constants (KD) were calculated from the ratio of kd over ka. The antibodies were ranked by their dissociation rate constant kd.
Description for human LILRB2: Binding affinity of anti-LILRB1 and anti-LILRB2 antibodies against human LILRB1, LILRB2, LILRA1, LILRA2 and cynomolgus LILRB2 was ranked by measuring dissociation rate constant (Kdis) using the Octet system.

B1: LK-RB2-4 (antibody, human IgG4 S228P, kappa, V domains shown)
VH: EVQLVESGGDLVKPGGSLKLSCAASGFTFSNYGMSWVRQTPDKRLEWVATISSGGSYTFYPDSVKGRFTISRDNAKNTLYLQMSSLKSEDTALYYCARDYYYGKTIEGYFDYWGQGTTLTVSS
VL: DIQMTQTTSSLSASLGDRVTISCRANQDISNYLNWYQQKPDGTVKLLIYYTSRLHSGVPSRFSGSGSGTDYSLTISDLEQEDIATYFCQQGNTLPWTFGGGTKLEIKR
For orientation: koff means the first-order rate constant of dissociation. In the assay with human LILRB2, B1 returned a koff of 0.000157 s⁻¹.

B2: LK-RB2-3 (antibody, human IgG4 S228P, kappa, V domains shown)
VH: QLQLQQSDAELVKPGASVKISCKVSGYSFTDHTIHWMKQRPEQGLEWIGYIYPRDGSTKENEKFTGKATLTADKSSSTAYMQLTSLTSEDSAVYFCTGSGFDYWGQGTSLTVSS
VL: DIKMTQSPSSMYASLGERVTITCKASQDIKSYLSWFQQKPGKSPKTLIYRANRLVDGVPSRFSGSGSGQDYSLTINSLEYEDMEIYYCLQYDEFPYTFGGGTKLEIKR
As to B2, the koff in the assay with human LILRB2 came out at 3.91e-05 s⁻¹.

B3: LK-RB1-16.h1 (antibody, human IgG4, kappa, V domains shown)
VH: QVQLQESGPGLVKPSETLSLTCTVSGFSLISNAISWIRQPPGKGLEWLGVIWGDGNTIYHSALRSRVTISKDTSKNQFSLKLSSVTAADTAVYYCAKANWDGYYFDYWGQGTTVTVSS
VL: DIQMTQSPSTLSASVGDRVTITCHASQSVDFWLNWYQQKPGKAPKLLIYKASNLHTGVPSRFSGSGSGTEFTLTISSLQPDDFATYYCQQGQSYPLTFGQGTKLEIKR
notes: Humanized form of LK-RB1-16
As usually defined, the Kd is the free concentration of one partner at which half of the binding sites on the other are occupied at equilibrium, for simple one-to-one binding. A lower Kd goes with tighter binding. One may read the kon as the rate constant with which the complex forms. A high value points to faster complex formation. Take B3: in the assay with human LILRB1-his, binding was characterised by a dissociation constant (Kd) of 0.507 nM, the koff stood at 0.0002 s⁻¹ and the kon stood at 394000 M⁻¹ s⁻¹.

B4: LK-RB1-16.h3 (antibody, human IgG4, kappa, V domains shown)
VH: B3 VH with V67L, F78V, S79F
VL: B3 VL with Y49S
notes: Humanized form of LK-RB1-16
In the assay with human LILRB1-his, B4 came in with a dissociation constant Kd of 0.24 nM, an off-rate (koff) of 0.000107 s⁻¹ and an on-rate (kon) of 444000 M⁻¹ s⁻¹.

B5: LK-RB2-21 (antibody, human IgG4 S228P, kappa, V domains shown)
VH: EVQLVESGGDLVKPGGSLKLSCAASGFTFSSYGMSWVRQTPDKRLEWVATISSGGSYTYYPDSLKGRFTISRDNAKSTLYLQMSSLKSEDTAKYYCARPYYDYIFYAIDYWGQGTSVTVSS
VL: DIQMNQSPSSLSASLGDTITITCHASQNINVWLSWYQQKPGNIPKLLIYKASNLHTGVPSRFSGSGSGTGFTLTISSLQPEDIATYYCQQGQSYPLTFGGGTKLEIKR
Turning to B5, in the assay with human LILRB2, the koff worked out at 0.000966 s⁻¹.

B6: LK-RB2-14 (antibody, human IgG4 S228P, kappa, V domains shown)
VH: QVQLKQSGPGLVQPSQSLSITCTVSGFSLTSYGVHWVRQSPGKGLEWLGVIWRGGSTDYNAAFMSRLSITKDNSKSQVFFKMNSLQADDTAIYYCAKNEGDSTVVAWYFDVWGTGTTVTVSS
VL: DIQMTQTTSSLSASLGDRVTISCSASQGISNYLNWFQQKPDGTVKLLIYYTSSLHSGVPSRFSGSGSGTDYSLTISNLEPEDIATYYCQQYSKLPLTFGAGTKLELKR
In the assay with human LILRB2, B6 displayed a koff of 0.000302 s⁻¹.

B7: LK-RB2-35 (antibody, human IgG4 S228P, kappa, V domains shown)
VH: EVQLQQSGPELVKPGASVKISCKASGYTFTDYNMHWVKQSHGKSLEWIGSIYPYNGGSDYNQKFKSKATLTVDNSSSTAYMELRSLTSEDSAVYYCASELTGLYAMDYWGQGTSVTVSS
VL: DIVMTQSPATLSVTPGDRVSLSCRASQSISDYLHWYQQKSHESPRLLIKYASQSISGIPSRFSGSGSGSDFTLSINSVEPEDVGVYYCQTGHSFPYTFGGGTKLEIKR
Turning to B7, the off-rate (koff) with human LILRB2 is 0.0012 s⁻¹.

B8: LK-RB2-1 (antibody, human IgG4 S228P, kappa, V domains shown)
VH: QIQLVQSGPELKKPGETVKISCKASGYTFTTYGMSWVKQAPGKGLKWMGWINTYSGVSTYADDFKGRFAFSLETSASTAYLQINNLKNEDTATYFCARRYDYDGYAMDYWGQGTSVTVSS
VL: DIVMSQSPSSLAVSVGEKVTMSCKSSQSLLFSSNQKNYLAWYQQKPGQSPKLLIYWASTRESGVPDRFTGRGSGTDFTLTISSVKTEDLAVYYCQQYDTYPPTFGGGTKLEIKR
Regarding B8, in the assay with human LILRB2, the koff is 0.00341 s⁻¹.

B9: LK-RB2-6 (antibody, human IgG4 S228P, kappa, V domains shown)
VH: B8 VH with K46E, T53I, S58P, Y100G, G104S, Y105F, A106Y, M107F, S115T, V116L
VL: B8 VL with M21V, F31Y, S33Y, A57S, R71S, T86A, Y97C, D98Y, T99N, P102Y
Take B9: in the assay with human LILRB2, the off-rate constant (koff) was found to be 0.00167 s⁻¹.

B10: LK-RB2-13 (antibody, human IgG4 S228P, kappa, V domains shown)
VH: B8 VH with K46Q, S58P, Y60F, E73D, Y100I, D101N, Y102W
VL: B8 VL with I2S, F31Y, S33G, N37S, R71S, T86A, D98Y, T99S, P102Y
B10: the koff with human LILRB2 came out at 0.00304 s⁻¹.

B11: LK-RB2-22 (antibody, human IgG4 S228P, kappa, V domains shown)
VH: B8 VH with P14T, T53I, S58P, Y100A, A106Y, M107F, S115T, V116L
VL: NIVMTQTPKFLLVSAGDRVTITCRASQSVTNDVAWYQQRPGQSLKLLIYYASNRYTGVPDRFTGSGYGTDFTFTISTVQAEDLAVYFCQQGYSSPFTFGSGTKLEIKR
In the case of B11, the koff with human LILRB2 was found to be 0.00126 s⁻¹.

B12: LK-RB2-23 (antibody, human IgG4 S228P, kappa, V domains shown)
VH: B8 VH with T53I, S58P, Y100G, A106Y, M107F, S115T, V116L
VL: NIVLIQSAATLSVTPGDSVSLSCRASQSLSNGLHWYQQKSHESPRLLIKYGSQSISGIPSRFSGSGSGTDFTLSINSVETEDFGMYFCQQSDSWPHTFGSGTKLEIKR
The molecule B12 displayed a dissociation rate constant (koff) with human LILRB2 of 0.000876 s⁻¹.

B13: LK-RB2-17 (antibody, human IgG4 S228P, kappa, V domains shown)
VH: QIQLVQSGPELKKPGETVKISCKASGYTFTNYGMSWVKQAPGKGLQWMGWINTYSGVPTFADDFRGRFAFSLDTSASTAYLQINSLKNEDTAAYFCARRINWDGYAMDYWGQGTSVTVSS
VL: DSVMSQSPSSLAVSVGEKVTLSCKSSQSLLYSGNQKSYLAWYQQKPGQSPKLLIYWASSRESGVPDRFTGSGSGTDFTLTISSVKAEDLAVYYCQQYYSFPYTFGGGTKLEIKR
As to B13, the dissociation rate constant (koff) with human LILRB2 was 0.000926 s⁻¹.

B14: LK-RB2-20 (antibody, human IgG4 S228P, kappa, V domains shown)
VH: QVQLKQPGAERVKPGASVKMSCKASGYTFTRYWITWVKQRPGQGLEWIGDIYPGSATTNYNEKFKSKATLTEDTSSSTAYMQLSSLTSEDSAVYYCARSGDYSNSNYAMDYWGQGTSVTVSS
VL: NIEMTQSPKSMSMAVGERVTLSCKASENVGTYVSWYQQKPEQSPKLLIYGASNRNTGVPDRFTGSGSATDFTLTISSVQAEDLADYHCGQSYSYPFTFGSGTKLEIKR
For B14, the koff with human LILRB2 was 0.000895 s⁻¹.

B15: LK-RB2-19 (antibody, human IgG4 S228P, kappa, V domains shown)
VH: QVQLQQPGAELVKPGASVKLSCKASGYTFTSYWMHWVKQRPGQGLEWIGMIHPNSGGTNYNEKFKSKATLTVDKSSSTAYMQFSSLTSEDSAVYYCARCTVVALYYALDYWGQGTSVTVSS
VL: QIVLSQSPAILSASPGEKVTMTCRATSRVSYIHWFQQKPGSSPKPWIYVTSNLASGVPARFSGSGSGTSYSLTISKLEAEDVATYYCQQWSTNPLTFGAGTKLELKR
In turn, B15 gave a dissociation rate constant (koff) in the assay with human LILRB2 of 0.002 s⁻¹.

B16: LK-RB2-12 (antibody, human IgG4 S228P, kappa, V domains shown)
VH: QIQLVQSGPELKKPGETVKISCKASGYTFTTYGMSWVKQTPGKGLKWMGWINIYSGVPTYADDFKGRFVFSLEISASTAHLQINNLKNEDTATYFCARRKDYSGHCFDYWGQGTTLTVSS
VL: DIVLTQSPASLAVSPGQRATISCRASESVDTYGISFMHWYQQKPGQPPKLLIYRASNLESGIPARFSGSGSRTDFTLTINPVETDDVAIYYCQQSKKDPYTFGGGTKLEIKR
B16 yielded an off-rate (koff) with human LILRB2 of 0.000662 s⁻¹.

B17: LK-RB2-45 (antibody, human IgG4 S228P, kappa, V domains shown)
VH: B16 VH with K46Q, I53V, V69A, I74A, H80Y, T93S, K100G, S103D, C106Y
VL: B7 VL with H34N, A51V, V83I, T90N, S93N, Y96L, I106L
Consider B17, for which the off-rate (koff) with human LILRB2 is 8.84e-05 s⁻¹.

B18: LK-RB2-15 (antibody, human IgG4 S228P, kappa, V domains shown)
VH: B16 VH with T40A, I53V, V69A, H80Y, N88D
VL: B16 VL with P15L, I21F, I89T, D98E
In the assay with human LILRB2, B18 had a koff of 6.22e-05 s⁻¹.

B19: LK-RB2-2 (antibody, human IgG4 S228P, kappa, V domains shown)
VH: DVKLEESGEGLVKPGGSLKLSCAASGFTFSSYAMSWVRQTPEKRLEWVAYISSGGDYFHYADTVKGRFTISRDNARNTLYLQMSSLKSEDTAMYYCTREGAHYDSSYLAWFAHWGQGTLVTVSA
VL: DIQMTQSPASLSVSVGETVTITCRASENIYSNLAWYQQRQGKSPQLLVYAATNLADGVPSRFSGSGSGTQYSLKINSLQSEDFGSYYCQQFWDNPLTFGAGTKLELKR
In the case of B19, the koff with human LILRB2 stood at 0.000757 s⁻¹.

B20: LK-RB2-7 (antibody, human IgG4 S228P, kappa, V domains shown)
VH: B19 VH with E5V, K43M, Y57H, H59Y, N77S, H102S, S106N, Y107F, H113Y
VL: B19 VL with R39K, Q40E, A50G, Q90N, N94I
As for B20, in the assay with human LILRB2, the koff came out at 0.0014 s⁻¹.

B21: LK-RB2-9 (antibody, human IgG4 S228P, kappa, V domains shown)
VH: DVQLQESGPGLVKPSQSLSLTCSVTGYSITSGYYWNWIRQFPGNKLEWMGYIGYDGNNNYNPSLKNRISITRDTSKNQFFLKLNSLTTEDTATYYCAREGSTMVTSWFAYWGQGTLVTVSA
VL: B19 VL with R39K, A50G, S65R, G68D, Q90H, N94T, L96Y, A100G, L106I
As for B21, in the assay with human LILRB2, the off-rate constant (koff) turned out to be 0.00135 s⁻¹.

B22: LK-RB2-18 (antibody, human IgG4 S228P, kappa, V domains shown)
VH: EVQLQQSGPELVKPGTSVKISCKASGYTFTDYYMNWVKQSHGKSLEWIGDINPNNGGTSYNQKFKGKATLTVDKSSSTAYMELRSLTSEDSAVFYCARSGTTVVGTYWYFDVWGTGTTVTVSS
VL: B19 VL with R39K, A50G, Q90H, N94T, L96F, A100S, L106I
On to B22, for which the koff with human LILRB2 stood at 0.000174 s⁻¹.

B23: LK-RB2-33 (antibody, human IgG4 S228P, kappa, V domains shown)
VH: EVQLQQSGVELVRPGALVKLSCKASGFNIKDYYMHWVKQRPEQGLEWIGWIDPEKGDTIYGPKFQGKASITADTSSNTAYLQLSSLTSEDTAVYYCSRGPNYGSSYAFAYWGQGTLVTVSA
VL: DVVMTQSHKFMSTSVGDRVTITCKASQDVSNAVAWYQQKPGQSPKLLIYSASYRYTGVPDRFTGSGSGTDFTFTISSMQAEDLAVYYCQQHYSLPWTFGGGTKLEIKR
Molecule B23 yielded a koff in the assay with human LILRB2 of 0.00139 s⁻¹.
